Patent US10688197B2, “Non-alcoholic fatty liver regulator 14-3-3 protein” (Korea University Research and Business Foundation, priority 2015, dated 2020)

How the values were obtained:
[1] = biological target: T1, PPARγ2 S273A mutant (Homo sapiens, UniProt P37231, S273A); experiment: aP2 promoter luciferase reporter with PPARγ2 S273A mutant in HEK-293T cells; type: cell-based; conditions: overexpression of 14-3-3β or 14-3-3γ, FIG. 4C/4D
T1 construct: expressed in transfected cells; host or cells: HEK-293T
T1 sequence (P37231 1-505 S273A): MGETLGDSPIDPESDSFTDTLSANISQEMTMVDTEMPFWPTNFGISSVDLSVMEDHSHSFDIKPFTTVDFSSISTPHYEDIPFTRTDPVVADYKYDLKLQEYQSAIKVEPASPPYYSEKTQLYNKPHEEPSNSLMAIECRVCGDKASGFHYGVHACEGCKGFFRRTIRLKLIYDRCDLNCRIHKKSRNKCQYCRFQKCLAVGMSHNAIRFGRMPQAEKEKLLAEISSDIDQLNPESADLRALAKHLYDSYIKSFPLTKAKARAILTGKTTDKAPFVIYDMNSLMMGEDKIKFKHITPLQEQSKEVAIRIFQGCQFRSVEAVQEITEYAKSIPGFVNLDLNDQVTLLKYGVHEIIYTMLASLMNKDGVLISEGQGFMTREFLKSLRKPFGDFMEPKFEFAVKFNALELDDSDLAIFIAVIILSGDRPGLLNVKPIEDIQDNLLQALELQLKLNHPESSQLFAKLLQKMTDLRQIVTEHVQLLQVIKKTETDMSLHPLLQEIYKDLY
Protocol: In addition, HEK-293T cells were seeded in a 12-well plate at a density of 1×10^5 cells per each well, and then transfected with an aP2 promoter construct (0.5 μg), Flag-PPARγ2 (S112A) DNA (0.5 μg) or Flag-PPARγ2 (S273A) DNA (0.5 μg), and mGST-14-3-3β DNA (0.5 μg) or mGST-14-3-3γ DNA (0.5 μg) using an E-fection plus reagent (Lugen). A ratio of DNA to the E-fection plus reagent was 1:2, and this method was performed according to a manufacturer's manual. The corresponding cells were washed with ice-cold PBS, and lysed using 80 μl/well of a reporter lysis buffer (Promega, Madison, Wis.), and the lysed cells were centrifuged at 10,000×g and 4° C. for 10 minutes to collect a supernatant, and luciferase activity was measured. As an instrument, Luminometer 20/20n (Turner Biosystems, Sunnyvale, Calif.) was used. For normalization, the cells were cotransfected with pSV40-β-galactosidase. For the collected supernatant, β-galactosidase activity was measured and the luciferase activity was revised, and the obtained values were plotted. At this time, a β-galactosidase enzyme analysis system (Promega, Madison, Wis.) was used, and analysis was performed using a DU530 spectrophotometer (Beckman Instruments, Palo Alto, Calif.).

[2] = biological target: T1, PPARγ2 S273A mutant; experiment: GST-pull down assay with PPARγ2 S273A mutant; type: binding; conditions: FIGS. 4A and 4B
Protocol: 14-3-3 proteins are known to bind to phosphorylated residues of a target protein. Phosphorylated residues associated with the activity of PPARγ2 are known to be serine 112 and serine 273. Thus, PPARγ2 mutants (PPARγ2 S112A and S273A) with non-phosphorylated serine 112 and serine 273 residues were produced and binding thereof with 14-3-3 proteins was verified through GST-pull down assay.
HEK-293T cells were seeded in a 100 mm plate at a density of 2×10^6 cells per each well, and then transfected with Flag-PPARγ2 (WT) DNA (4 μg), Flag-PPARγ2 (S112A) DNA (4 μg), Flag-PPARγ2 (S273A) DNA (4 μg), and mGST-14-3-3β (4 μg) or mGST-14-3-3γ (4 μg) using an E-fection plus reagent (Lugen). As for Flag-PPARγ2 (S112A) DNA and Flag-PPARγ2 (S273A) DNA, DNA fragments amplified through polymerase chain reaction (PCR) were cloned into a Flag-tagged vector. A ratio of DNA to the E-fection plus reagent was 1:2, and this method was performed according to a manufacturer's manual. The corresponding cells were washed with ice-cold PBS and lysed using 500 μl/well of a lysis buffer (150 mM NaCl, 1 mM EDTA, 1% Nonidet P-40, 5% glycerol, 25 mM tris-HCl, pH 7.5, protease inhibitor added), and the lysed cells were centrifuged at 10,000×g and 4° C. for 10 minutes to extract proteins. […]

Row | transcriptional activity of PPARγ2 S273A mutant [1] | binding with PPARγ2 S273A mutant [2] | Substance
1 | no change | suppressed | 14-3-3β: 14-3-3 isoform protein overexpressed by DNA transfection; increases the transcriptional activity of PPARγ2 by binding to PPARγ2
2 | no change | suppressed | 14-3-3γ: 14-3-3 isoform protein overexpressed by DNA transfection; decreases the transcriptional activity of PPARγ2; proposed active ingredient
